Measurements: publication doi:10.1101/2025.07.01.662498, “Automodification of N-terminal serine residues in PARP2 impacts PARP2 release from DNA damage sites”

Target: PARP2 WT (human, UniProt Q9UGN5 1-583)
Experiment: fluorescence polarization; HPF1 not mentioned for this value; 10 mM HEPES pH 8.0, 150 mM NaCl, 0.1 mg/ml BSA, 0.1 mM TCEP, 0.1 mM EDTA, 25 C (FP)
Conditions: protein: recombinant; tags: His6-TEV, tag cleaved; nicked dumbbell: two hairpins with TTTT loops, one strand

Sequence of PARP2 WT (Q9UGN5 whole entry): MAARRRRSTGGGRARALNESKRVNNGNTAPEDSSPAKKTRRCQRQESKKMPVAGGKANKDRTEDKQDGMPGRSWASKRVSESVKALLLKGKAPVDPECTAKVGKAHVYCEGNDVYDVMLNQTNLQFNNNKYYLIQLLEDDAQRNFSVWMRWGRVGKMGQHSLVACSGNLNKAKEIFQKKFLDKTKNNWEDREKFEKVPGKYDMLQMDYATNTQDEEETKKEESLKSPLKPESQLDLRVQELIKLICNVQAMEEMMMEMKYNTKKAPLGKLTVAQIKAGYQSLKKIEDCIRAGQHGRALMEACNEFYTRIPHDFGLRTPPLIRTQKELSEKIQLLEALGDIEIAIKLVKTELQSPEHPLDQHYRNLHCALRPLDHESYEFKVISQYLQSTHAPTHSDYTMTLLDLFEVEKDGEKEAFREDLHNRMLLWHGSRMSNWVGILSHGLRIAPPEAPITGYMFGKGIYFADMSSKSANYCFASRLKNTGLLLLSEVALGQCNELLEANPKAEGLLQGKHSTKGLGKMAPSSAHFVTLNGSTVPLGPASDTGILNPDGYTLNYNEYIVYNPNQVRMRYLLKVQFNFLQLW

GGAAGTCTTTTGACTTCCTCGAAGCTTTTGCTTCGA (structured_DNA, 5'-phosphate) [fluorescein-labelled nicked dumbbell DNA, 5'-phosphate]
Kd: 4.8 ± 2.9 nM
